FRET efficiency and PCNA:pol δ-mediated in vitro DNA synthesis (polydA/oligodT, [3H]dTTP incorporation) with increasing amounts of agnoprotein data for two molecules are collected here from publication PMC4318453.

One experiment has as its target heat shock protein 40 (UniProt P25685). Briefly: FRET or BRET; positive control of the FRET experiment, results not shown. In general terms: BRET reads energy transfer from a luciferase to a nearby fluorophore.
The target of experiment [1] is Proliferating cell nuclear antigen, purified recombinant (UniProt P12004).

Sequence of UniProt P25685 (P25685 whole entry): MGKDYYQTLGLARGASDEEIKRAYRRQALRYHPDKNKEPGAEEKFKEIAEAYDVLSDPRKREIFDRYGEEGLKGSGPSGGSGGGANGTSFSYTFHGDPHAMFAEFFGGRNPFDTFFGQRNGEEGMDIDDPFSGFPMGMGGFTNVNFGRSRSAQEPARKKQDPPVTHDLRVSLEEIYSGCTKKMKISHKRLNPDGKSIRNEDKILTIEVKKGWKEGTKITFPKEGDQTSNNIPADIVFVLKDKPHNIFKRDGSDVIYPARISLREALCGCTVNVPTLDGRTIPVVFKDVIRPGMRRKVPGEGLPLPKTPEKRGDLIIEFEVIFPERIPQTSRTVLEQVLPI

Molecule “mitogen-activated protein kinase MK5 (from UniProt Q8IW41 1-473) (enzyme)” gave an FRET efficiency in the experiment with heat shock protein 40 of 15%.

B1: BKPyV agnoprotein, purified full-length (natural protein)
chain: MVLRQLSRQASVKVGKTWTGTKKRAQRIFIFILELLLEFCRGEDSVDGKNKSTTALPAVKDSVKDS
For B1, in experiment [1], the PCNA:pol δ-mediated in vitro DNA synthesis (polydA/oligodT, [3H]dTTP incorporation) with increasing amounts of agnoprotein was 50%.
